The values below come from publication PMC3941051.

The assay has as its target His-FLAG-Arp5 (not stated (human or rat cDNA cloned)) (UniProt Q9H9F9). In words: cross-linking.
UniProt Q9H9F9, sequence (Q9H9F9 whole entry): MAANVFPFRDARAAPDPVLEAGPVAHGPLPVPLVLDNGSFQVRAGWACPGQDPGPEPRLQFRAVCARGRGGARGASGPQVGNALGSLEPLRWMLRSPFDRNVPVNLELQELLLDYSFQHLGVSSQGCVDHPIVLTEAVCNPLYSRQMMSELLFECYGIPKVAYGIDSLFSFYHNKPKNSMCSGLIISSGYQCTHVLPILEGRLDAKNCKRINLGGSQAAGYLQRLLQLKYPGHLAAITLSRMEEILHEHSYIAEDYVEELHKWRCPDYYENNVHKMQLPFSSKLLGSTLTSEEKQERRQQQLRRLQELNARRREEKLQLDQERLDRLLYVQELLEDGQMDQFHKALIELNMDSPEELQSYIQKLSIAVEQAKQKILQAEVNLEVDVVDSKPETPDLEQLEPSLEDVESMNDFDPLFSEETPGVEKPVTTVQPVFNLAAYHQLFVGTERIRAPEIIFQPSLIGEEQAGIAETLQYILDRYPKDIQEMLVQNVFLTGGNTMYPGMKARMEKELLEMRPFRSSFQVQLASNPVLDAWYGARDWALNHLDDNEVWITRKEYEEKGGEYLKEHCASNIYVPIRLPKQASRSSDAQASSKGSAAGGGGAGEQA

Usually stoichiometry N stands for the number of molecules, sites or subunits per partner or assembly. “GFP-fused 32-amino acid Myocd RPEL1 motif peptide (RPEL1-GFP)” showed a stoichiometry N of 1.
